Data set [1] has as its target NrdRΔNΔC, truncated S. coelicolor NrdR lacking both N- and C-terminal domains (Streptomyces coelicolor) (UniProt O69980). In words: SEC; analytical SEC, Superdex 200 PC 3.2/30, 7 °C; 50 mM Tris-HCl pH 8.5, 50 mM KCl, 10 mM MgCl2, 0.5 mM TCEP, nucleotides in sample and buffer; 64 µM NrdR samples.
For data set [2], the target named is T1, NrdR (Streptomyces coelicolor, UniProt O69980).
T1 construct: full-length wild type, C-terminal His tag (pET30a(+)::nrdR), E. coli BL21(DE3); apo dimer 44 kDa, dodecamer with ATP, octamer/tetramer with dATP + ATP
The experiment in a line: isothermal titration calorimetry, one set of sites. The data set is classed as binding.

The target in data set [3] is T1, NrdR. The experiment in a line: isothermal titration calorimetry, one set of sites. The class given is binding. Particulars: 10 mM MgCl2, 50 mM Tris-HCl pH 8, 300 mM NaCl, 10% glycerol, 1 mM TCEP; 20 and 10 °C (which one not told).
Data set [4] deals with the molecule itself. The experiment in a line: GEMMA (gas-phase electrophoretic mobility molecular analysis); with 50 µM dAMP and equimolar Mg acetate; 0.08 mg/ml; 100 mM ammonium acetate pH 7.3, 0.005% Tween-20.
Data set [5] concerns the molecule itself. In words: cryo-EM structure; ATP-loaded NrdR; 1 mM ATP and 10 mM MgCl2 added to apo-protein, SEC in 50 mM Tris-HCl pH 8.0, 150 mM NaCl, 10 mM MgCl2, 1 mM TCEP, 0.5 mM ATP; 0.4 mg/ml (19 µM monomer) on grids.
Data set [6] deals with the molecule itself. In words: GEMMA (gas-phase electrophoretic mobility molecular analysis); with dATP + ATP (50 µM nucleotide) and equimolar Mg acetate; 0.08 and 0.16 mg/ml; 100 mM ammonium acetate pH 7.3, 0.005% Tween-20.
The target of data set [7] is T2, NrdR (Streptomyces coelicolor M145, UniProt O69980 1-182).
T2 sequence: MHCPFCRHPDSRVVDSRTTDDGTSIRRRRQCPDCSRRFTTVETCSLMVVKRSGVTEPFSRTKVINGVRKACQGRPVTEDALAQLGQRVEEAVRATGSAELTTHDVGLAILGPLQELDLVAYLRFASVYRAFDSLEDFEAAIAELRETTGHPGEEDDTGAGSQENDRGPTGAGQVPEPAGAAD
The experiment in a line: MST; 1 mM dATP + 1 mM ADP, 10 mM Mg2+; MST: 25 mM Tris-HCl pH 7.6, 150 mM NaCl, 10 mM MgCl2, 5% glycerol, 1 mM DTT, 0.05% Tween-20, nucleotides 1 mM each, 10 nM Cy5-dsDNA, room temperature. Particulars: protein: recombinant; tags: C-terminal His6 (pET30a); chain copies: 4; label: 5'-Cy5 on sense strand; blunt.

Data set [8] has as its target T2, NrdR. In words: MST; 1 mM dATP + 1 mM ATP, 10 mM Mg2+; MST: 25 mM Tris-HCl pH 7.6, 150 mM NaCl, 10 mM MgCl2, 5% glycerol, 1 mM DTT, 0.05% Tween-20, nucleotides 1 mM each, 10 nM Cy5-dsDNA, room temperature. The conditions noted are these: protein: recombinant; tags: C-terminal His6 (pET30a); chain copies: 4; label: 5'-Cy5 on sense strand; blunt.
In data set [9] the target is T3, NrdR R17A (Streptomyces coelicolor M145, UniProt O69980 1-182, R17A).
T3 sequence: T2 sequence with R17A
In words: MST; 1 mM dATP + 1 mM ATP; MST: 25 mM Tris-HCl pH 7.6, 150 mM NaCl, 10 mM MgCl2, 5% glycerol, 1 mM DTT, 0.05% Tween-20, nucleotides 1 mM each, 10 nM Cy5-dsDNA, room temperature. Particulars: protein: recombinant; tags: C-terminal His6 (pET30a); label: 5'-Cy5 on sense strand; blunt.

The target of data set [10] is T4, NrdR D15A/R17A (Streptomyces coelicolor M145, UniProt O69980 1-182, D15A;R17A).
T4 sequence: T2 sequence with D15A, R17A
The data set is described as above. Particulars: protein: recombinant; tags: C-terminal His6 (pET30a); label: 5'-Cy5 on sense strand; blunt.

The target of data set [11] is T5, NrdR D15A (Streptomyces coelicolor M145, UniProt O69980 1-182, D15A).
T5 sequence: T2 sequence with D15A
Described as above. Particulars: protein: recombinant; tags: C-terminal His6 (pET30a); label: 5'-Cy5 on sense strand; blunt.

Data set [12] has as its target T2, NrdR. The description is as above. Particulars: protein: recombinant; tags: C-terminal His6 (pET30a); chain copies: 4; label: 5'-Cy5 on sense strand; blunt.
Data set [13] addresses T2, NrdR. In words: MST; MST: 25 mM Tris-HCl pH 7.6, 150 mM NaCl, 10 mM MgCl2, 5% glycerol, 1 mM DTT, 0.05% Tween-20, nucleotides 1 mM each, 10 nM Cy5-dsDNA, room temperature. The conditions noted are these: protein: recombinant; tags: C-terminal His6 (pET30a); chain copies: 4; label: 5'-Cy5 on sense strand; blunt.

Substitutions are numbered along the chain they refer to. “And” between values parts separate entries of the source, which are not always exact repeats. Identical values can stand only once.

“NrdRΔNΔC, truncated S. coelicolor NrdR lacking both N- and C-terminal domains (from UniProt O69980 1-182) (domain or fragment)”: the stoichiometry N in data set [1] is 2.

In [2], `Nc1ncnc2c1ncn2[C@@H]1O[C@H](COP(=O)(O)OP(=O)(O)OP(=O)(O)O)[C@@H](O)[C@H]1O` [ATP] came in with a Kd of 4000 nM.

As to `Nc1ncnc2c1ncn2[C@@H]1O[C@H](COP(=O)(O)OP(=O)(O)O)[C@@H](O)[C@H]1O` [ADP], in data set [2], the equilibrium dissociation constant (Kd) is 600 nM.

Consider `Nc1ncnc2c1ncn2[C@H]1C[C@H](O)[C@@H](COP(=O)(O)OP(=O)(O)OP(=O)(O)O)O1` [dATP], for which the dissociation constant Kd in [2] came to 1000 nM.

`Nc1ncnc2c1ncn2[C@H]1C[C@H](O)[C@@H](COP(=O)(O)O)O1` [dAMP]: the KD result in [3] was “AMP, dAMP, and di-cyclic AMP were comparable to ATP in binding strengths”.

As for `Nc1ncnc2c1ncn2[C@@H]1O[C@H](COP(=O)(O)O)[C@@H](O)[C@H]1O` [AMP], in data set [3], the KD result was “AMP, dAMP, and di-cyclic AMP were comparable to ATP in binding strengths”.

Regarding `Nc1ncnc2c1ncn2[C@@H]1O[C@@H]2COP(=O)(O)O[C@H]3[C@@H](O)[C@H](n4cnc5c(N)ncnc54)O[C@@H]3COP(=O)(O)O[C@H]2[C@H]1O` [cyclic di-AMP], in [3], the KD result is “AMP, dAMP, and di-cyclic AMP were comparable to ATP in binding strengths”.

`Nc1ncnc2c1ncn2[C@H]1C[C@H](O)[C@@H](COP(=O)(O)OP(=O)(O)O)O1` [dADP] showed a dissociation constant Kd in [2] of 400 nM.

B1: Streptomyces coelicolor NrdR (wild type) (natural protein)
chain: T2 sequence
notes: RNR-specific transcriptional repressor NrdR of Streptomyces coelicolor strain M145; the nrdR gene cloned into pET30a(+), wild type; N-terminal Zn-ribbon domain followed by an ATP-cone domain and a C-terminal part; the wild-type nrdR gene was amplified, so probably the whole protein; Holds about 0.78 mol Zn per mol protein; also called apo-NrdR; ATP-loaded NrdR
Consider B1, for which the “stoichiometry N” value was 2 in data set [4]; 12 in data set [5]; 8 and 4 in data set [6].

B2: nrdAB promoter 57 bp (dsDNA)
DNA 1: CCGGGACACAACATCTGGGGGTGCTCGCGTCCCCCGGCACAAGATGTATGCTCATGC
DNA 2: GCATGAGCATACATCTTGTGCCGGGGGACGCGAGCACCCCCAGATGTTGTGTCCCGG
Take B2: the Kd was 159 ± 22 nM in data set [7] and 142 ± 31 nM in data set [8].

B3: nrdRJ promoter 57 bp (dsDNA)
DNA 1: GCCAATCCCCACATCTAGTGGTTGGATAGCGTGAGCAGCCCACAAGTTGTGGTCCCC
DNA 2: GGGGACCACAACTTGTGGGCTGCTCACGCTATCCAACCACTAGATGTGGGGATTGGC
On to B3, for which the binding result is reported as “no binding” in data set [9], “no binding” in data set [10] and “binds” in [11]. Moreover, the equilibrium dissociation constant (Kd) in data set [7] is 68 ± 16 nM; in data set [8], 51 ± 11 nM.

B4: nrdRJ G9/C18 (dsDNA)
DNA 1: B3 DNA 1 with C9G, G18C
DNA 2: B3 DNA 2 with C40G, G49C
With B4, in [9], the binding result was “no binding”. The “fold decrease in affinity vs wild-type DNA” value in [12] was ~50 fold lower affinity than wild-type DNA.

B5: nrdRJ T9/T18/T40/T49 (dsDNA)
DNA 1: B3 DNA 1 with C9T, G18T, C40T, G49T
DNA 2: B3 DNA 2 with C9A, G18A, C40A, G49A
Turning to B5, in [9], the binding result is “no binding”.

B6: nrdRJ C18/C49 (dsDNA)
DNA 1: B3 DNA 1 with G18C, G49C
DNA 2: B3 DNA 2 with C9G, C40G
Take B6: the binding result in [9] is given as “no binding”. For the same molecule, in data set [12], the “fold decrease in affinity vs wild-type DNA” value was ~60 fold lower affinity than wild-type DNA.

B7: cydA promoter 57 bp (dsDNA)
DNA 1: GTAGGTCATAATTGCTTGTGAATGTGAACGCGTTCACAAGCGTGTCCCGATTGCGCC
DNA 2: GGCGCAATCGGGACACGCTTGTGAACGCGTTCACATTCACAAGCAATTATGACCTAC
Consider B7, for which the binding result in data set [13] and in data set [9] was “no binding” throughout. Further, the Kd in data set [11] worked out at 2600 ± 300 nM.

The record behind these values is paper PMC9110341, “A nucleotide-sensing oligomerization mechanism that controls NrdR-dependent transcription of ribonucleotide reductases” (Nature Communications, 2022).
